According to paper PMC8445900:

Tests used:
Test in all cases: ITC
[1] = target: SARS-CoV-2 spike protein receptor-binding domain K417N (SARS-CoV-2) (UniProt P0DTC2)
[2] = target: SARS-CoV-2 spike protein receptor-binding domain S494P (SARS-CoV-2) (UniProt P0DTC2)
[3] = target: SARS-CoV-2 spike protein receptor-binding domain T478I (SARS-CoV-2) (UniProt P0DTC2)
[4] = target: SARS-CoV-2 spike protein receptor-binding domain S477N (SARS-CoV-2) (UniProt P0DTC2)
[5] = target: SARS-CoV-2 spike protein receptor-binding domain Y453F (SARS-CoV-2) (UniProt P0DTC2)

## CC12.1 single-chain fragment variable (scFv)
[1]
  Kd: 119 nM
  dH: -1.8 kcal/mol
[2]
  Kd: 23 nM
  dH: -6.4 kcal/mol
[3]
  Kd: 5.8 nM
  dH: -5.6 kcal/mol
[4]
  Kd: 25.6 nM
  dH: -5.7 kcal/mol
[5]
  Kd: 827 nM
  dH: -2.2 kcal/mol
